The source of these data is patent US20220089770A1 (Chugai, published 2022).

One assay concerns the target T1, Myc-human MARVELD3 (human, UniProt Q96A59 2-401).
T1 construct: also called human MARVELD3 isoform2; MARVELD3 isoform2
T1 sequence: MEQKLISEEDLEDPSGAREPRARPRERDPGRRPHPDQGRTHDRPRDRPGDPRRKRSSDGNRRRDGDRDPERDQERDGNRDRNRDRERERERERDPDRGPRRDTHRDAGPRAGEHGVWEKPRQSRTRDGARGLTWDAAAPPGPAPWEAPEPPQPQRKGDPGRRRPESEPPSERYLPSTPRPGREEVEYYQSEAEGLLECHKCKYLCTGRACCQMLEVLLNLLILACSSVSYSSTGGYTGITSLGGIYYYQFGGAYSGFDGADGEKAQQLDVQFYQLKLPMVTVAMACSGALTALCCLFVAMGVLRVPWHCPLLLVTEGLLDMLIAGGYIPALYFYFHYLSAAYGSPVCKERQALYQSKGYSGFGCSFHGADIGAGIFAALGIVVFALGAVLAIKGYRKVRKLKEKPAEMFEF
The assay is described as follows: flow cytometry on Expi293 cells transiently expressing Myc-human MARVELD3 isoform2 against cells with empty vector; anti-human IgG Fc Alexa488. From the text: A plasmid vector that expresses, in mammalian cells, a molecule (Myc-human MARVELD3, nucleotide SEQ ID NO: 29, amino acid SEQ ID NO: 30) in which the Myc tag sequence ([…], SEQ ID NO: 25) has been added after the N-terminal methionine of full-length human MARVELD3 isoform2 (amino acid SEQ ID NO: 4), was introduced into Expi293 cells (Thermo Fisher Scientific), and the protein was transiently expressed in the Expi293 cells. At the same time, Expi293 cells transfected with an empty plasmid vector were also prepared as a control. The Expi293 cells transfected with an empty plasmid vector were stained with CellTrace FarRed (Thermo Fisher Scientific) and then mixed with the Expi293 cells made to express human MARVELD3 isoform2, and subsequently reacted with an anti-human MARVELD3 isoform2 antibody prepared in Example 9. […] The cells reacted with the antibody were measured by FACS Aria III (Becton, Dickinson and Company). The obtained data were analyzed by FlowJo ver.10. The live cell fraction, which was not stained with DAPI fluorescence, was separated into a fraction that was stained with CellTrace FarRed (cells transfected with the empty plasmid vector) and a fraction that was not stained with CellTrace FarRed (cells transfected with the human XPR1-Myc expression plasmid vector), and Alexa488 staining for each fraction was examined.
On the technique in general: A flow cytometer gives signals particle by particle.

The target in another assay is T2, NOX1_Nx1B_564-myc (human).
T2 construct: Expressed in Expi293 cells treated with 4% paraformaldehyde and 1% digitonin before staining; also called human NOX1
T2 sequence (chain, as listed by the source limits assumed): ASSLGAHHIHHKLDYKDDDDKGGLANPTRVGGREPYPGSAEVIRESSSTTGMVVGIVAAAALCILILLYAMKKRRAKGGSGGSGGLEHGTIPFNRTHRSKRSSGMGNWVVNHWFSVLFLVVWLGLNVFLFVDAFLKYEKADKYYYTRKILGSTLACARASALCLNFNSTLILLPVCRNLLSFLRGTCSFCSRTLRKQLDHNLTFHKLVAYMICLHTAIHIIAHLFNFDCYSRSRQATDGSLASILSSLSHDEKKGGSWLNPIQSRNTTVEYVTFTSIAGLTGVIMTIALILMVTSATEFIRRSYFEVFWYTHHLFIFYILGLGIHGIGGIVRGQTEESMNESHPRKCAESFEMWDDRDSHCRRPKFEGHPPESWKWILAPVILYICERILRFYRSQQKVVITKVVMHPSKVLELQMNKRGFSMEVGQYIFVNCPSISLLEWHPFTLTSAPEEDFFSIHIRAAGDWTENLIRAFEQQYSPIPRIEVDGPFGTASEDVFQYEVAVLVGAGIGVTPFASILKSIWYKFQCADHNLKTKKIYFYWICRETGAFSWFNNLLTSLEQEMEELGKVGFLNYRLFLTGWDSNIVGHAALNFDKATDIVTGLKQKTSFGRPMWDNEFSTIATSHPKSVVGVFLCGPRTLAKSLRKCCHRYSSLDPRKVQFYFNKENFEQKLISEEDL
In words: flow cytometry on fixed, digitonin-treated Expi293 cells expressing NOX1_Nx1B_564-myc against cells with empty vector; anti-human IgG Fc Alexa488. As for the experimental part: (§1) A plasmid vector expressing human NOX1-Strep (amino acid SEQ ID NO: 34) or a plasmid vector expressing NOX1_Nx1B_564-myc (amino acid SEQ ID NO: 33) was introduced into Expi293 cells (Thermo Fisher Scientific) to express the protein transiently. At the same time, Expi293 cells transfected with an empty plasmid vector were also prepared as a control. These cells were treated with 4% paraformaldehyde and 1% digitonin. The Expi293 cells transfected with an empty plasmid vector were stained with CellTrace FarRed (Thermo Fisher Scientific), the Expi293 cells transfected with the plasmid vector expressing human NOX1-Strep were stained with CellTrace FarRed and CellTrace Violet (Thermo Fisher Scientific), and then mixed with the Expi293 cells made to express NOX1_Nx1B_564-myc. Subsequently, the cells were reacted with an anti-human NOX1 antibody prepared in Example 13.
(§2) Then, anti-human IgG Fc cross-adsorbed Alexa488 (Invitrogen) was reacted to stain the anti-human NOX1 antibody. The cells reacted with the antibody were measured by FACS Aria III (Becton, Dickinson and Company). The obtained data were analyzed by FlowJo ver.10.

The target of a further assay is human NOX1-Strep (human, UniProt Q9Y5S8 1-564). In words: flow cytometry on fixed, digitonin-treated Expi293 cells expressing human NOX1-Strep against cells with empty vector; anti-human IgG Fc Alexa488. As for the experimental part: as §1, §2
Chain of human NOX1-Strep (Q9Y5S8 other isoform, or with tags, fused parts or gaps): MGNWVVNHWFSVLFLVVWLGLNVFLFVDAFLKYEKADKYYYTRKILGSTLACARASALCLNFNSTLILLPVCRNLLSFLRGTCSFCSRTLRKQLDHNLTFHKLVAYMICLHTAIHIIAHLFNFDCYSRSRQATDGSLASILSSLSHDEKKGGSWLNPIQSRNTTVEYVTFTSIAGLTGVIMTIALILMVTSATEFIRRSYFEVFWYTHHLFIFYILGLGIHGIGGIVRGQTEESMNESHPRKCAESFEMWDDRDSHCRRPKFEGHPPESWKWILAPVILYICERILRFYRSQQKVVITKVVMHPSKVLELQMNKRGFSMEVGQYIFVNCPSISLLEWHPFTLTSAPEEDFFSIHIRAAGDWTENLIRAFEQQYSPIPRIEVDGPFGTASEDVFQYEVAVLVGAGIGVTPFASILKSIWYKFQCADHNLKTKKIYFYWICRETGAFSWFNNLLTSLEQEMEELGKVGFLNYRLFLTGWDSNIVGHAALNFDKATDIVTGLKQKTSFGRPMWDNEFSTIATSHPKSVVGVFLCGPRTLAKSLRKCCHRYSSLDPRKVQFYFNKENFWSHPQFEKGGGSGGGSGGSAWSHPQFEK
The target of another assay is T3, human XPR1-Myc (human, UniProt Q9UBH6 1-696).
T3 sequence: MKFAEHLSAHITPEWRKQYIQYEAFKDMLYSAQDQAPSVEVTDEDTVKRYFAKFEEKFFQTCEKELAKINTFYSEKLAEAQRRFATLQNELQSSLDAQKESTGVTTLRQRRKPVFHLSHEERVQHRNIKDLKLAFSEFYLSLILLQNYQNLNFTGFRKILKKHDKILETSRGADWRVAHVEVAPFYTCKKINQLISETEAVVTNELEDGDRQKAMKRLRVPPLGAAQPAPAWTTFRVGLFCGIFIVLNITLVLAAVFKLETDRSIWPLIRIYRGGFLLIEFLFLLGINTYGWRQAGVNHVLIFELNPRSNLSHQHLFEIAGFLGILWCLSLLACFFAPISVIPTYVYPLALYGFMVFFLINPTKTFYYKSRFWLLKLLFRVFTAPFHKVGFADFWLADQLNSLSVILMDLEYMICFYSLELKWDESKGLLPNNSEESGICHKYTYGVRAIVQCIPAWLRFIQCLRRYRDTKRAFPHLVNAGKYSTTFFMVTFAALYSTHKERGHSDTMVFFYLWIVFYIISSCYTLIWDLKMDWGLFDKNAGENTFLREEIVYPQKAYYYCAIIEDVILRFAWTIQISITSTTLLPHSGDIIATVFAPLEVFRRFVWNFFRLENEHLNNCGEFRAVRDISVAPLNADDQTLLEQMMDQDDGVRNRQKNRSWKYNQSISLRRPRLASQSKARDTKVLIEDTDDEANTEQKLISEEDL
The assay is described as follows: flow cytometry on Expi293 cells transiently expressing human XPR1-Myc against cells with empty vector; anti-human IgG Fc Alexa488. The procedure:
A plasmid vector expressing in mammalian cells full-length human XPR1 (amino acid SEQ ID NO: 1) with a Myc tag sequence ([…], SEQ ID NO: 25) added to the C-terminus (human XPR1-Myc, nucleotide SEQ ID NO: 26, amino acid SEQ ID NO: 27) was constructed. The protein was transiently expressed in Expi293 cells (Thermo Fisher Scientific) by introducing the constructed plasmid vector into Expi293 cells. At the same time, Expi293 cells transfected with an empty plasmid vector were also prepared as a control. The Expi293 cells transfected with an empty plasmid vector were stained with CellTrace FarRed (Thermo Fisher Scientific) and then mixed with the Expi293 cells made to express human XPR1-Myc, and subsequently reacted with the anti-human XPR1 antibody prepared in Example 6. […] The cells reacted with the antibody were measured by FACS Aria III (Becton, Dickinson and Company). The obtained data were analyzed by FlowJo ver.10. The live cell fraction, which was not stained with DAPI fluorescence, was separated into a fraction that was stained with CellTrace FarRed (cells transfected with the empty plasmid vector) and a fraction that was not stained with CellTrace FarRed (cells transfected with the human XPR1-Myc expression plasmid vector), and Alexa488 staining for each fraction was examined.

B1: MDA0279 (antibody, V domains shown)
VH: QSLEESGGDLVKPGGTLTLTCTASGFSFSDWYWVGWVRQAPGKGLEWIGCIVTGNGHTYYASWAKGRFTISKTSSTTVTLQLNSLTAADTATYFCARGVGASRYALWGPGTLVTVSS
VL: IVMTQTPSSKSVPVGDTVTINCQASESVASNWLSWYQQKPGQPPKLLIYFASTLASGVPSRFKGSGSGTQFTLTISDVVCDDAATYYCAGYKSDTTDGTAFGGGTEVVVK
notes: Rabbit variable regions inserted into an expression vector containing the IgG constant regions; detected with anti-human IgG Fc; also called anti-human MARVELD3 isoform2 antibody
Consider B1, for which the binding result with Myc-human MARVELD3 is “binds”.

B2: NXA0164 (antibody, V domains shown)
VH: QSVEESGGRLVTPGTPLTLTCTVSGFSLSNYAMSWVRQAPGKGLEWIGIISSSGSTYYASWAKGRFTISKTSTTVDLKITSPTTEDTATYFCARDLDASTGTDIWGPGTLVTVSS
VL: AVLTQTPSPVSAAVGGTVTINCQASQSVYSNNYLSWFQQKPGQPPKLLIYKASTLASGVPSRFKGSGSGTQFTLTISDVQCDDAATYYCAGDYKSSSDIRAFGGGTEVVVK
notes: Rabbit variable regions inserted into an expression vector containing IgG constant regions; detected with anti-human IgG Fc; also called anti-human NOX1 antibody
Turning to B2, the binding result in the assay with NOX1_Nx1B_564-myc and in the assay with human NOX1-Strep was “binds” each time.

B3: XPB0062 (antibody, V domains shown)
VH: QSLEESGGDLVKPGASLTLTCTASGFSFSSSYWICWVRQAPGKGLEWIACINAGNSGSTYYASWAKGRFTISKTSSTTVTLQMTSLTAADTATYFCARGSYSYGYVGYVYTTSTRLDLWGQGTLVTVSS
VL: DVVMTQTPASVSEPVGGTVTIKCQASQNIGSDLAWYQQKPGQPPKLLIYRASTLASGVSSRFKGSGSGTQFTLTISDLECADAATYYCQCTYYGSIYVPNAFGGGTEVVVK
notes: Rabbit variable regions inserted into an expression vector containing the IgG constant regions (recombinant antibody); detected with anti-human IgG Fc; also called anti-human XPR1 antibody
For the molecule B3, the binding result with human XPR1-Myc is on record as “binds”.

B4: MDA0314 (antibody, V domains shown)
VH: QSLEESGGRLVTPGTPLTLTCTASGFSLSYYFMTWVRQAPGKGLEYIGIIRVDGSGYYATWAKGRFTISRTSTTVELKITSPTTEDTATYFCARVGDWAFNIWGPGTLVTVSS
VL: IKMTQTPASVSTAVGGTVSINCQASEDIESYLAWFQQKPGQRPKLLIYRASTLASGVSSRFKGSGSGTEFTLTISGVECADAATYYCQQGHTINNIDNVFGGGTEVVVK
notes: as for B1
As for B4, the binding result with Myc-human MARVELD3 was “binds”.

B5: NXA0125 (antibody, V domains shown)
VH: QEQLEESGGDLVKPGASLTLTCTASGFSFNSNYFMCWVRQAPGKGLEWIACIYTGSSGGTYYATWAKGRFTISKTSSTTVTLQMTSLTAADTATYFCAGDTMTIPFNLWGPGTLVTVSS
VL: QVLTQTASPVSAPVGGTVTINCQASQSVYNNNNLHWFQQKPGQRPKLLIYFASTLASGVSSRFKGSGSGTQFTLTISGVQCDDAATYYCQGEFSCSSADCNAFGGGTEVVVK
notes: as for B2
With B5, the binding result with NOX1_Nx1B_564-myc and with human NOX1-Strep was “binds” in each case.
